Columns and labels:
β-amyloid (Aβ) [1] = molecular target: T1, β-amyloid (Aβ) (UniProt P05067 672-711, limits assumed); experiment: not stated (standard affinity maturation)
T1 construct: Aβ is a fragment of it; also called beta amyloid; Ab40

β-amyloid (Aβ) [2] = molecular target: T1, β-amyloid (Aβ); experiment: not stated (clone from standard affinity maturation of H1)

T1 sequence (P05067 672-711 limits assumed): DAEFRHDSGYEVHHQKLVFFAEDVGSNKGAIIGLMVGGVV

- fold increase in affinity over the parent H1 scFv (β-amyloid (Aβ) [1]): ~5 fold
- Kd (β-amyloid (Aβ) [2]): 247 nM
B1: H1v2 anti-Ab40 scFv (scFv)
scFv: MAEVQLVESGGGVVRPGGSLRLSCAASGFTFDDYGMSWVRQAPGKGLEWVSGINWNGGSTGYADSVKGRFTISRDNAKNSLYLQMNSLRAEDTAVYYCARRRYALDYWGQGTLVTVSRGGGGSGGGGSGGGGSSELTQDPAVSVALGQTVRITCQGDSLRSYYASWYQQKPGQAPVLVIYGKNNRPSGIPDRFSGSSSGNTASLTITGAQAEDEADYYCNSRDSSGNHVVFGGGTKLTVLG
notes: also called H1v2 clone
